Protein stability index data for 72 sequences are collected here from the supplement of paper PMC10567573.

± gives the standard deviation.

The nature of this series: protein stability index of a GFP-peptide fusion (GPS, HEK-293T) (PSI 1-6); higher = more stable.
Setting [1] is: treatment: DMSO, c terminus: a fixed tail appended.
Where [2] appears, read: treatment: MLN4924 1 uM, 8 h, c terminus: a fixed tail appended.
Setting [3] is: treatment: DMSO, c terminus: native.
Where [4] appears, read: treatment: MLN4924 1 uM, 8 h, c terminus: native.
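Note: 24-mer peptide tiles fused after GFP, lentivirally expressed, FACS-sorted into six equal bins by GFP/DsRed ratio, decoded by Illumina sequencing, PSI is the read-weighted mean bin number.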

In the case of TDGSVLAAGTHDGSVYFWATPRQV [WSB1], the protein stability index is 2.9 ± 0.18 under setting [1] and 2.89 ± 0.37 under setting [2].
The matching figures for LELNFKAGDVIFLLSRINKDWLEG [NCF4]: 2.77 ± 0.7 and 3.09 ± 1.6.
The matching figures for HGSGSSLVVIQQPSLDSRQRLDYE [SPRY1]: 4.12 ± 0.28 and 3.99 ± 0.31.
Turning to ESGLRSLRLFQKLEENGDLYLAV [WDR41], the protein stability index is, setting by setting: under setting [3], 2.08 ± 0.2; under setting [4], 2.16 ± 0.36.
On to SNSADDETDDPRRYQKYGYIGTHE [OAS1], for which the protein stability index amounted to 4.99 ± 0.11 under setting [1] and 4.85 ± 0.16 under setting [2].
The matching figures for QKYKLFQQQQLTFTAALEHCRENA [SPACA9]: 2.86 ± 0.24 and 3.12 ± 0.29.
Take LTVAKCWDPSPRGCFTLPRSEPIR [DVL3]: the protein stability index reads like this: under setting [1], 2.43 ± 0.37; under setting [2], 2.62 ± 0.23.
The matching figures for MVESRYALLIVDSATALYRTDYSG [RAD51]: 3 ± 0.79 and 2.86 ± 0.71.
The matching figures for QGSAVTLKTSKMALSPSATAKRIN [CDC14A]: 4.22 ± 0.25 and 4.44 ± 0.18.
On to QKTSGQHMIQGAGSLEKALPIIQS [DLC1], for which the protein stability index by setting is: under setting [1], 3.86 ± 0.26; under setting [2], 4.18 ± 0.097.
For the sequence AEPDMDDPAYIAVLVLIFNAAKTC [INTS4], the protein stability index runs as follows: under setting [1], 2.37 ± 0.47; under setting [2], 2.12 ± 0.29.
The matching figures for PPDRTLGCWATDAAPAAGLCGAGS [RSPH3]: 3.79 ± 0.15 and 3.71 ± 0.32.
Turning to TERLSHQITSRVVSAATQLRHFFL [RTN2], the protein stability index runs as follows: under setting [1], 4.1 ± 0.17; under setting [2], 4.08 ± 0.14.
In the case of LALYTPVGAAGSARQELLGDRPRW [ANKRD9], the protein stability index is, setting by setting: under setting [1], 3.28 ± 0.27; under setting [2], 2.96 ± 0.21.
For YSYVYQDGLRLLGARARGVAMLGV [SOAT2], the protein stability index is, setting by setting: under setting [1], 2.55 ± 0.59; under setting [2], 2.25 ± 0.21.
The matching figures for LMSYERRQILHLITMMALKVLGEL [TENT5D]: 2.67 ± 0.24 and 2.39 ± 0.31.
The matching figures for ETQTLTGWSKGFIGMHREMQVNPI [RHOBTB1]: 2.89 ± 0.26 and 3.12 ± 0.23.
With SGCSSELKNRMEYALNMLLQRCN [PLK2], the protein stability index reads like this: under setting [3], 3.57 ± 0.15; under setting [4], 3.77 ± 0.12.
As to VTLARQAGEVVCEAIKNEMNVMLK [IMPA1], the protein stability index runs as follows: under setting [1], 2.44 ± 0.4; under setting [2], 2.44 ± 0.45.
Consider HHKTYDPTYSDFCQFRPPVRVNDG [VDR], for which the protein stability index reads like this: under setting [1], 3.38 ± 0.29; under setting [2], 3.28 ± 0.16.
The matching figures for MEEAAVASVVLPARELQEALPEAP [BCL2L13]: 5.27 ± 0.15 and 5.51 ± 0.069.
The matching figures for PTPVGAVQQDPALSSNREAHQHRD [CSNK1G3]: 5.37 ± 0.21 and 5.41 ± 0.19.
WNMDKYTMIRKLEGHHHDVVACDF [WSB1]: the protein stability index reads like this: under setting [1], 2.38 ± 0.19; under setting [2], 2.58 ± 0.33.
The matching figures for KELILDKVYTHPKWNTQTKARSYS [ZC2HC1C]: 2.91 ± 0.44 and 3.44 ± 0.46.
The matching figures for DLEAVVPQNGSETGWARKGLGNTW [ATP23]: 3.42 ± 0.2 and 3.38 ± 0.44.
The matching figures for ALKMTWHVHCFTCAACKTPIRNRA [PDLIM7]: 2.5 ± 0.51 and 2.3 ± 0.58.
Turning to TTTLEGSPSVPCIFCEEHFPVAEQ [ZNF277], the protein stability index was 4.17 ± 0.27 under setting [1] and 4.32 ± 0.26 under setting [2].
The matching figures for TGELETLKERCAQDACQAQAREKE [CCDC89]: 5.46 ± 0.31 and 5.39 ± 0.2.
The matching figures for DVEAWFNTQTEELNQQVVSSSEQL [KRT36]: 4.65 ± 0.22 and 4.73 ± 0.15.
The matching figures for RLVAPTEGSLEWDILEVKRLLDHQ [WDR41]: 2.67 ± 0.46 and 2.77 ± 0.29.
Take ARHFNYVGDLMGSLAYCLACGGGH [DHCR7]: the protein stability index runs as follows: under setting [1], 2.9 ± 0.71; under setting [2], 2.68 ± 0.53.
As for DIELGCSTPLMEAAQEGHLELVKY [ANKRD17], the protein stability index stood at 4.03 ± 0.29 under setting [1] and 4.18 ± 0.27 under setting [2].
The matching figures for QYNRPISDFLTLHSIIISLVEAGA [FEM1B]: 2.34 ± 0.53 and 2.36 ± 0.34.
The matching figures for SGNFERCIRLWKYALDMQQSNLEP [FEM1A]: 2.12 ± 0.12 and 2.38 ± 0.48.
For the sequence DTQYGSSVDIWAIGCVFAELLTGQ [CDKL4], the protein stability index reads like this: under setting [1], 2.8 ± 0.59; under setting [2], 2.37 ± 0.46.
The matching figures for KLTREVLSLFVQKLGNLMSLDISG [ZER1]: 2.86 ± 0.81 and 2.56 ± 0.46.
The matching figures for NHLNPEVKKSCWTEEEDRIICEAH [MYBL2]: 4.72 ± 0.1 and 4.81 ± 0.2.
The matching figures for FLKAVLRQERVSLYPFQIHSIALS [CDS1]: 2.01 ± 0.23 and 2.42 ± 0.91.
Consider TETEATNSLITAPGEFSDASMSPD [SMAD6], for which the protein stability index is, setting by setting: under setting [1], 5.42 ± 0.2; under setting [2], 5.28 ± 0.37.
The matching figures for EEEQDILQRLRENAAHLGDKRRDL [TRIM39]: 5.06 ± 0.26 and 4.97 ± 0.059.
The matching figures for SRAGGPTTPLSPTRLSRLQEKEEL [LMNB1]: 5.15 ± 0.37 and 5.36 ± 0.15.
The matching figures for YLCKRVPHTVLDRQLLCLIDYYES [CEP70]: 2.1 ± 0.58 and 2.21 ± 0.32.
The sequence PRNADKIRVKIADLGNACWVHKHF [SRPK2] gave a protein stability index under setting [1] of 2.26 ± 0.12 and a protein stability index under setting [2] of 2.42 ± 1.3.
The matching figures for LLEQAGSLKGSLSVEEQLSLISGC [CRYL1]: 2.98 ± 0.32 and 3.2 ± 0.39.
The matching figures for GRGNFPTLEITLKDIVQTVRSRLE [TENT5C]: 2.65 ± 0.36 and 2.31 ± 0.2.
The matching figures for NDFCSFYNILKTCRGHTLERSVFS [CARM1]: 2.78 ± 0.6 and 2.4 ± 0.3.
With MVPVENTEGPSLLNQKGTAVETEG [SLC2A12], the protein stability index is, setting by setting: under setting [1], 5.62 ± 0.19; under setting [2], 5.11 ± 0.3.
The matching figures for CPLCTSDRGSCVSTTEGIQLAKEL [RHOBTB3]: 3.23 ± 0.29 and 3.58 ± 0.38.
EDSLAALSSVPSEAQISDPFAPEP [SNAP91]: the protein stability index is, setting by setting: under setting [1], 5.33 ± 0.34; under setting [2], 5.34 ± 0.18.
As to KGPLVPFPNQKSEAAEPPKTPPSS [KMT5A], the protein stability index runs as follows: under setting [1], 5.25 ± 0.25; under setting [2], 5.39 ± 0.21.
The matching figures for KERAAGGGAGSSEDDAQSRRDEQD [GOLPH3]: 5.65 ± 0.35 and 5.67 ± 0.15.
The matching figures for RVIACQKTAHDSNVLHVARLPNRQ [WDR41]: 3.52 ± 0.18 and 3.65 ± 0.27.
The matching figures for LIFSPCSDCEEEEEEEEEEGSGHS [WEE1]: 4.88 ± 0.19 and 5.03 ± 0.13.
For QFLDIGPDVTRVGLLQYGSTVKNE [MATN2], the protein stability index was determined as 3.55 ± 0.14 under setting [1] and 3.65 ± 0.45 under setting [2].
The matching figures for PDPSVWSRRYTEMALPFFSLAEVR [MYORG]: 2.52 ± 0.31 and 2.45 ± 0.13.
The matching figures for DLHFKMFDVGGQRSERKKWIHCFE [GNAI1]: 1.73 ± 0.25 and 2.64 ± 0.35.
The matching figures for KQIAVAITEALRPAGVGVVVEATH [GCH1]: 2.37 ± 0.28 and 2.42 ± 0.25.
Regarding QLQKILSIPQSSLEPLKAIIQYRL [ACSBG2], the protein stability index was 2.78 ± 0.86 under setting [1] and 2.36 ± 0.25 under setting [2].
The matching figures for TRGHAISILFGFWTSFICDTYIVL [SMIM2]: 2.73 ± 0.4 and 2.78 ± 0.46.
Turning to LDWISYQVEKNKYDASAIDFSRCD [ELF3], the protein stability index runs as follows: under setting [1], 2.93 ± 0.23; under setting [2], 3.01 ± 0.1.
The matching figures for DLTSEDQIVLLKSSAIEVIMLRSN [VDR]: 2.28 ± 0.21 and 2.05 ± 0.34.
The matching figures for YILELDDGNGGQFREVYVGKETMC [TRIM9]: 2.28 ± 0.11 and 2.29 ± 0.16.
In the case of EGGTAVTGGQTVVNPWIIIGGVAT [SEPHS2], the protein stability index runs as follows: under setting [1], 2.68 ± 0.29; under setting [2], 2.77 ± 0.43.
The matching figures for GLAANGALQRLDLRNNQISHKGAE [LRRC45]: 4.23 ± 0.4 and 4.57 ± 0.18.
The matching figures for SEPHYGHAGTVYGGVMYISGGITH [KLHL13]: 2.17 ± 0.47 and 2.14 ± 0.17.
The matching figures for LHKIYLCQSGYFSSMFSGSWKESS [GMCL1]: 2.26 ± 0.82 and 2.18 ± 0.37.
For DPSVRLKIASLLGLLSKTAGFSPD [INTS4], the protein stability index under setting [1] was 2.57 ± 0.46 and the protein stability index under setting [2] was 2.38 ± 0.26.
The matching figures for KQIAGGDVTAKNIWLAESVLDILT [INTS3]: 2.2 ± 0.064 and 2.13 ± 0.26.
The matching figures for TALKKWMFLQLVPSWNGSLKQLLT [GMCL1]: 2.74 ± 0.56 and 2.43 ± 0.43.
The matching figures for EKMMQEAEKLKAQGEYSRKLEERF [CCDC89]: 3.48 ± 0.24 and 3.56 ± 0.52.
With LPEKACQLDSRYWRITNAKGDVEE [FBXO3], the protein stability index came to 4.47 ± 0.11 under setting [1] and 4.49 ± 0.52 under setting [2].
The matching figures for CRCVASPPPDAAATAASSSASSPA [SLC25A25]: 4.52 ± 0.22 and 4.35 ± 0.29.
